Data published in PMC10472834 (Cell metabolism, 2021).

Molecular target: the molecule itself
Test: cross-linking

B1: ME2-Flag catalytic-inactive mutant (CM), stably expressed in MOLM14 cells (natural protein)
chain: not shown
stoichiometry N: 2
